From patent US20240309104A1 (PROMETHEUS BIOSCIENCES, published 2024)
Where a chain is given by its changes, count along the chain named. Where “and” joins values, the source holds several entries; their conditions need not be identical. Equal values may be shown once.

Assays:
Experiment in all cases: cell-based or functional assay
[1] = molecular target: T1, TL1A produced by PBMCs in cynomolgus monkey whole blood (cynomolgus monkey, UniProt G7PRK8 72-251)
T1 sequence: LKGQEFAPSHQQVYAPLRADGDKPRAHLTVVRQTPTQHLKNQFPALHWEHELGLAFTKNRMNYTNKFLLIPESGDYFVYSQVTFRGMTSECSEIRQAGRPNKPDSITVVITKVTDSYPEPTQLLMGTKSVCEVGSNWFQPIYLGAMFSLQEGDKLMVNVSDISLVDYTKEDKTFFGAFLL

[2] = molecular target: T2, recombinant human TL1A protein (human, UniProt O95150 72-251)
T2 sequence (looked up): T1 sequence with L39F, V78I

[3] = molecular target: T3, recombinant cynomolgus monkey TL1A protein (cynomolgus monkey, UniProt G7PRK8 72-251)
T3 sequence: T1 sequence

inhibition of the IFN-γ response in monkey whole blood (mean IC50) [1]: 1.54 nM and 289 ng/mL
inhibition of TL1A-induced caspase activation in TF-1 cells (IC50) [2]: 0.27 nM
inhibition of TL1A-induced caspase activation in TF-1 cells (IC50) [3]: 0.59 nM
B1: anti-TL1A antibody A219 (antibody, V domains shown)
VH: QVQLVQSGAEVKKPGASVKVSCKASGFDIQDTYMHWVKQRPGQGLEWMGRIDPASGHTKYDPKFQVRVTITRDTSTSTVYLELSSLRSEDTAVYYCARSGGLPDVWGQGTTVTVSS
VL: EIVLTQSPGTLSLSPGERATLSCRASSSVSYMYWYQQKPGQAPRPLIYATSNLASGIPDRFSGSGSGTDFTLTISRLEPEDFAVYYCQQWEGNPRTFGGGTKLEIK
